The results in this text go back to patent publication US20140051834A1, “Incretin Receptor Ligand Polypeptide Fc-Region Fusion Polypeptides And Conjugates With Altered Fc-Effector Function” (Hoffman-La Roche, Inc., priority 2012, published 2014).

For orientation: Kd means a measure of binding affinity in units of concentration. A high value points to a looser complex.

One experiment has as its target FcγRIIA-R131 (human) (UniProt P12318). Briefly: SPR (BIAcore T100, 25 °C); antibody immobilised, receptor as analyte, steady state fit. (In general: In SPR one partner is held on a chip, and binding of the other changes the refractive index at the surface.)
For a further experiment, the target named is FcγRI (human) (UniProt P12314). Briefly: SPR (BIAcore T100, 25 °C); FcγRI captured by pentaHis antibody, antibody as analyte.
Another experiment concerns the target FcγRIIIA-V158 (human) (UniProt P08637). Briefly: SPR (BIAcore T100, 25 °C); antibody immobilised, receptor as analyte, steady state fit.

Chain of FcγRI (human) (P12314 16-288 limits assumed): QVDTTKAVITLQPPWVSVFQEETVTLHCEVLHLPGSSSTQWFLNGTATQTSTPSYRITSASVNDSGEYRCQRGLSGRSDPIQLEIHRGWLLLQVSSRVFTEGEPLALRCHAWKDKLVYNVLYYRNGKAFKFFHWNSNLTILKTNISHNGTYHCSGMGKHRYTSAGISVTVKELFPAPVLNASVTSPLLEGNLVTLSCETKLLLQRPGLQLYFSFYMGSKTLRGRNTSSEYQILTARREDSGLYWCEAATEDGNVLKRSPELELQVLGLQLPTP
Chain of FcγRIIA-R131 (human) (P12318 36-218 H167R limits assumed): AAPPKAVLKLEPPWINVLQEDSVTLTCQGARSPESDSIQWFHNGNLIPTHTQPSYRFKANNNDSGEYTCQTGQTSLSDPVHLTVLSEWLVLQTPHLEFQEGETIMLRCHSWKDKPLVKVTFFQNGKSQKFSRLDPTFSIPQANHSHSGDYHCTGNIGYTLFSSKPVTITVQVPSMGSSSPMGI
Chain of IgG4 SPLE (antibody of Tables 1a and 1b, specificity not named) (Fc): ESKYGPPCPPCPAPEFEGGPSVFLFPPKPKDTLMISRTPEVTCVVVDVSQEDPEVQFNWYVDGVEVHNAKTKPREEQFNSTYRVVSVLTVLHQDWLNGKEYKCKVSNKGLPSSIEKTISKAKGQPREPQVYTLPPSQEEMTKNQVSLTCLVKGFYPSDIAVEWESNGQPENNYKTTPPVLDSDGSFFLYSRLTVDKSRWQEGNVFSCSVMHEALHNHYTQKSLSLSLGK
Chain of FcγRIIIA-V158 (human) (P08637 17-208 F176V limits assumed): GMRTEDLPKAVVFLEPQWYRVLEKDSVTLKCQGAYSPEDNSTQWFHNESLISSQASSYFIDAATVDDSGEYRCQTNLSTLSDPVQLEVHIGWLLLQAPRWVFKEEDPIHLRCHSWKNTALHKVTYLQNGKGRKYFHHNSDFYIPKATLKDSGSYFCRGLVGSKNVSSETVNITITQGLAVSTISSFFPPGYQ

In the case of “IgG4 SPLE (antibody of Tables 1a and 1b, specificity not named)”, in the experiment with FcγRIIA-R131 (human), the Kd is 10000 nM.
Consider “IgG1 P329G (antibody of Tables 1a and 1b, specificity not named)”, for which the Kd with FcγRI (human) was 6 nM.
For the substance “IgG1 P329G ge (antibody of Table 1a, specificity not named)”, in the experiment with FcγRI (human), the Kd turned out to be 10 nM.
Regarding “IgG1 P329A ge (antibody of Table 1a, specificity not named)”, the Kd with FcγRI (human) was determined as 8 nM; with FcγRIIA-R131 (human) it was 4400 nM; with FcγRIIIA-V158 (human), 1800 nM.
As to anti-CD20 antibody IgG1 P329G, the Kd in the experiment with FcγRI (human) worked out at 5.7 nM.
